Key:
[1] = tested on: ParT (G87P) (Streptomyces coelicolor A3(2) (plasmid SCP2)); assay: BLI; conditions: BLI: 100 mM Tris-HCl pH 8, 150 mM NaCl, 1 mM MgCl2, 0.005% Tween-20, temperature not given; SPR at 4 C on Biacore 8K
[2] = target: T1, ParT (Streptomyces coelicolor A3(2) (plasmid SCP2)) (UniProt Q8VWE5); assay: BLI; conditions: BLI: 100 mM Tris-HCl pH 8, 150 mM NaCl, 1 mM MgCl2, 0.005% Tween-20, temperature not given
T1 sequence: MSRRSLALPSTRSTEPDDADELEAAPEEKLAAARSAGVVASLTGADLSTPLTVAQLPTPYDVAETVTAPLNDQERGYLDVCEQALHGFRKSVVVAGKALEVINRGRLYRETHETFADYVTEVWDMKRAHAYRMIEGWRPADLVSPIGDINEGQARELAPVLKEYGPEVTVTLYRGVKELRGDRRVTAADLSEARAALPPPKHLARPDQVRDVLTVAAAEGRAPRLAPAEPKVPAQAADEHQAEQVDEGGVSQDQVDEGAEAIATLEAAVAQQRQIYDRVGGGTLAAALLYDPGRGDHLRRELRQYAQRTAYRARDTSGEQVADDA

[3] = target: T1, ParT (Streptomyces coelicolor A3(2) (plasmid SCP2)); assay: SPR; conditions: 4 C; kinetics; DNA fragment assumed as in BLI; BLI: 100 mM Tris-HCl pH 8, 150 mM NaCl, 1 mM MgCl2, 0.005% Tween-20, temperature not given; SPR at 4 C on Biacore 8K
[4] = target: ParA-His6, ParA of plasmid SCP2 (Streptomyces coelicolor)
[5] = target: the molecule itself; assay: not stated; apo-ParT in solution (SI Appendix, Fig. S8A); the method is not told in the main text
ParT [6] = target: T2, ParT (Streptomyces coelicolor A3(2) (plasmid …, UniProt Q8VWE5 1-325)); assay: BLI; no NTP; equilibrium analysis; BLI: 100 mM Tris-HCl pH 8, 150 mM NaCl, 1 mM MgCl2, 0.005% Tween-20, temperature not given; SPR at 4 C on Biacore 8K; conditions: protein: recombinant; tags: C-terminal His6; chain copies: 2; label: 5' biotin on strand 1 (BLI); blunt
T2 sequence: T1 sequence

ParT [7] = target: T2, ParT; assay: BLI; up to 2 uM ParT; BLI: 100 mM Tris-HCl pH 8, 150 mM NaCl, 1 mM MgCl2, 0.005% Tween-20, temperature not given; SPR at 4 C on Biacore 8K; conditions: protein: recombinant; tags: C-terminal His6; chain copies: 2; label: 5' biotin on strand 1 (BLI); blunt

180-bp parS DNA cut with BamHI or EcoRI
binding signal (fraction of closed-loop signal) [1]: 1
binding signal (fraction of closed-loop signal) ([2]; 1 uM ParT, free DNA end by BamHI or EcoRI, SPR at 4 C on Biacore …): 0.2

40-bp parS+10 duplex
Kd ([2]; no NTP, equilibrium analysis, SPR at 4 C on Biacore 8K): 580 nM
Kd [3]: 730 nM

B1: biotinylated ParT (WT), ParB-like protein of plasmid SCP2 (natural protein)
chain: T1 sequence
modifications: biotin (site and way of biotinylation not stated)
ATPase activity of 0.5 µM ParA with ATP, nonspecific DNA and ParT in increasing molar excess (ATP/ParA/hour) [4]: 6

B2: ParT (WT), purified, unlabelled (natural protein, Streptomyces coelicolor, UniProt Q8VWE5 1-325, looked up)
chain: T1 sequence
notes: ParT (SCP2.04c), ParB-like protein encoded on plasmid SCP2 of Streptomyces coelicolor, UniProt Q8VWE5; the rows with itself tell the dimer; also called apo-ParT; SCP2.04c; source: purified
stoichiometry N [5]: 2

B3: 40-bp parS duplex (dsDNA)
DNA 1: GGCCGACCTCGTGTCTCCAATTGGAGACATCAACGAGGGC
DNA 2: GCCCTCGTTGATGTCTCCAATTGGAGACACGAGGTCGGCC
Kd (ParT [6]): 680 ± 200 nM

B4: 40-bp scrambled parS duplex (dsDNA)
DNA 1: ATCGGGCACCTTAGGGCAATCGTAAGTTCGGCGCACGACC
DNA 2: GGTCGTGCGCCGAACTTACGATTGCCCTAAGGTGCCCGAT
binding result (ParT [7]): no binding

Source: article PMC12260392, “Expanding the diversity of bacterial DNA partitioning: A CTP-independent ParABS system for plasmid partitioning in Streptomyces” (Proceedings of the National Academy of Sciences of the …, 2025)
